Experimental data from US20240252601A1.

Tests used:
Assay in all cases: cell-based or functional assay
[1] = target: SARS-CoV2 Spike, Omicron BA.2.12.1 variant (on pseudovirus) (SARS-CoV2)
[2] = target: SARS-CoV2 Spike D614G (on pVSV-Luc-SARS-CoV2-S pseudovirus) (SARS-CoV2) (UniProt P0DTC2)
[3] = target: SARS-CoV2 Spike, Omicron BA.2 variant (on pseudovirus) (SARS-CoV2)
[4] = target: SARS-CoV2 Spike, Omicron BA.4.6 variant (on pseudovirus) (SARS-CoV2)
[5] = target: SARS-CoV2 Spike, Omicron BA.4/BA.5 variant (on pseudovirus) (SARS-CoV2)
[6] = target: SARS-CoV2 Spike, Omicron BA.1 variant (on pseudovirus) (SARS-CoV2)
[7] = target: SARS-CoV2 Spike, Omicron XBB1.5 variant (on pseudovirus) (SARS-CoV2)

ACE2 (615/615)-IgG-Fc, sequence (Q9BYF1 18-615 limits assumed): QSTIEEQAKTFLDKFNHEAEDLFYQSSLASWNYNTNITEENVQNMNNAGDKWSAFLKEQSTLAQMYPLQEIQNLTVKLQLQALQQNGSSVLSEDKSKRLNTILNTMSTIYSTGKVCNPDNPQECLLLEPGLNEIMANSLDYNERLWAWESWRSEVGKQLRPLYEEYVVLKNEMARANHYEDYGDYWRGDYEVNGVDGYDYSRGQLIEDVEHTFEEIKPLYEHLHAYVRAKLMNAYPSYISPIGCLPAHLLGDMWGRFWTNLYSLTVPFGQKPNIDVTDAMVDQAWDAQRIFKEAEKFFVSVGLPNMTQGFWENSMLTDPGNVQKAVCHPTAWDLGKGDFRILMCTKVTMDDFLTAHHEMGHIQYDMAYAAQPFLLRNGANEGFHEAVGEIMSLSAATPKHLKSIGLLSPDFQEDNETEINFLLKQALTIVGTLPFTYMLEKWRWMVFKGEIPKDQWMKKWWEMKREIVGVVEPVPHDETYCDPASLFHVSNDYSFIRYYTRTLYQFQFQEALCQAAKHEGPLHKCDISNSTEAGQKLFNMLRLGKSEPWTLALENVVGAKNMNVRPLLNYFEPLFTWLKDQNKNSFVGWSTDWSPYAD
ACE2 (615/615)-IgG-Fc, sequence (Q9BYF1 18-615 limits assumed): as above

Substance	Fold reduction from against D614G [1]	IC50 [M], neutralization [1]	Fold reduction from against D614G [2]	IC50 [M], neutralization [2]	Fold reduction from against D614G [3]	IC50 [M], neutralization [3]	Fold reduction from against D614G [4]	IC50 [M], neutralization [4]	Fold reduction from against D614G [5]	IC50 [M], neutralization [5]	Fold reduction from against D614G [6]	IC50 [M], neutralization [6]	IC50 [M], neutralization [7]
ACE2 (615/615)-IgG-Fc (from UniProt Q9BYF1 18-615; Q9BYF1 18-615) (Fc fusion)	2.32 fold	1.23e-11 M	19.4 fold	1.03e-10 M	3.51 fold	1.86e-11 M	6.32 fold	3.35e-11 M	11.6 fold	6.17e-11 M	1.25 fold	6.61e-12 M	–
ACE2 v2.4 (615)-Fc (x2), second row of this label in Table 6 (Fc fusion)	468 fold	2.48e-09 M	515 fold	2.73e-09 M	515 fold	2.73e-09 M	343 fold	1.82e-09 M	317 fold	1.68e-09 M	240 fold	1.27e-09 M	–
REGEN-COV (REGN10933+REGN10987)	–	–	–	5.2e-12 M	–	–	–	–	–	–	–	–	> 2e-08 M
